Source: PMC4100928, “Evolutionary Divergence in the Catalytic Activity of the CAM-1, ROR1 and ROR2 Kinase Domains” (PLoS ONE, 2014)
Where a chain is given by its changes, count along the chain named. Numbers in names are those of the source.

Key:
MuSK ICD = biological target: T1, MuSK ICD (Homo sapiens, UniProt O15146); assay: autophosphorylation, anti-phosphotyrosine immunoblot; type: biochemical; conditions: 2 mM ATP, 20 mM MgCl2, 0.2 mM orthovanadate, about 18 h at 4 °C
T1 sequence (O15146 519-869): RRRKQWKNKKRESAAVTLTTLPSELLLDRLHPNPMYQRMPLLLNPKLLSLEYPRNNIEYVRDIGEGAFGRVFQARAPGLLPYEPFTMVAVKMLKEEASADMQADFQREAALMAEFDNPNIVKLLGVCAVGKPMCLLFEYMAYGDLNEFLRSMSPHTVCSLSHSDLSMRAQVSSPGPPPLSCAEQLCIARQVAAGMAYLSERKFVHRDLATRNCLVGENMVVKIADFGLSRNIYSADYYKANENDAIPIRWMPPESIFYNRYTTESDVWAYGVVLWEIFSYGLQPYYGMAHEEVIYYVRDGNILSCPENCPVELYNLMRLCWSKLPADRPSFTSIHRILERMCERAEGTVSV

ROR1 ICD [1] = biological target: T2, ROR1 ICD (Homo sapiens, UniProt Q01973); assay: [gamma-32P]ATP phosphocellulose paper binding assay, initial rates; type: biochemical; conditions: 20 mM Mg2+ or 5 mM Mn2+; 5 mM activation loop peptide; 20 °C; limit of assay
T2 sequence (Q01973 428-937): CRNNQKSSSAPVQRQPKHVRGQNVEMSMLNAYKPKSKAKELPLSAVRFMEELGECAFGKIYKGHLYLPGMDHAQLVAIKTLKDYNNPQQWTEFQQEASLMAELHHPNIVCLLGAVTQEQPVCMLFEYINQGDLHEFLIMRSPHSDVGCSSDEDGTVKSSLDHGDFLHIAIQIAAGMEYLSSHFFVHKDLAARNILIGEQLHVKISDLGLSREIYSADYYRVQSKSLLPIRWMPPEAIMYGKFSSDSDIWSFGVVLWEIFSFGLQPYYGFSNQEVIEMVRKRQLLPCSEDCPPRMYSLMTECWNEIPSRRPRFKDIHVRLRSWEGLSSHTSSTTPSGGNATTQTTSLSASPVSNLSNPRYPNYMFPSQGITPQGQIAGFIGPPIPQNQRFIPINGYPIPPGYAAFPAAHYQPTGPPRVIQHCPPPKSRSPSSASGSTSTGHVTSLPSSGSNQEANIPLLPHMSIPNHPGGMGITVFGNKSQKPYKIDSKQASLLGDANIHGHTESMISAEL
Description: (§1) [gamma-32P]ATP phosphocellulose paper binding assay, initial rates on ROR1 ICD

ROR1 ICD [2] = biological target: T3, ROR1 ICD (Homo sapiens, UniProt Q01973, C482G); assay: as above; type: biochemical; conditions: 20 mM Mg2+ or 5 mM Mn2+; 5 mM activation loop peptide; 20 °C; limit of assay
T3 sequence (Q01973 428-937 C482G): T2 sequence (Q01973 428-937) with C55G
Description: as §1

[3] = substrate: Nc1ncnc2c1ncn2[C@@H]1O[C@H](COP(=O)(O)OP(=O)(O)OP(=O)(O)O)[C@@H](O)[C@H]1O; assay: as above; type: biochemical, Homo sapiens; conditions: 20 mM Mg2+ or 5 mM Mn2+, 5 mM activation loop peptide, 20 °C, limit of assay
Description: [gamma-32P]ATP phosphocellulose paper binding assay, initial rates on ROR2 ICD

[4] = substrate: Nc1ncnc2c1ncn2[C@@H]1O[C@H](COP(=O)(O)OP(=O)(O)OP(=O)(O)O)[C@@H](O)[C@H]1O; assay: as above; type: biochemical, Caenorhabditis elegans; conditions: 5 mM activation loop peptide, 20 °C
Description: [gamma-32P]ATP phosphocellulose paper binding assay, initial rates on CAM-1 ICD

[5] = 20 mM Mg2+ or 5 mM Mn2+, limit of assay
[6] = phosphorylated enzyme (pre-incubated with ATP/Mg2+) 10 µM, 20 mM Mg2+
[7] = unphosphorylated enzyme 10 µM, 20 mM Mg2+

`Nc1ncnc2c1ncn2[C@@H]1O[C@H](COP(=O)(O)OP(=O)(O)OP(=O)(O)O)[C@@H](O)[C@H]1O` [ATP] was tested, and the “autophosphorylation, anti-phosphotyrosine immunoblot” value (MuSK ICD) was “ICDs of receptors ROR1, ROR2, CAM-1 and MuSK were incubated overnight”, the Km (ROR1 ICD [1]) was > 15 mM and the Km (ROR1 ICD [2]) was > 15 mM.

B1: ROR2 ICD (Homo sapiens) (protein)
chain: CRNKQKASASTPQRRQLMASPSQDMEMPLINQHKQAKLKEISLSAVRFMEELGEDRFGKVYKGHLFGPAPGEQTQAVAIKTLKDKAEGPLREEFRHEAMLRARLQHPNVVCLLGVVTKDQPLSMIFSYCSHGDLHEFLVMRSPHSDVGSTDDDRTVKSALEPPDFVHLVAQIAAGMEYLSSHHVVHKDLATRNVLVYDKLNVKISDLGLFREVYAADYYKLLGNSLLPIRWMAPEAIMYGKFSIDSDIWSYGVVLWEVFSYGLQPYCGYSNQDVVEMIRNRQVLPCPDDCPAWVYALMIECWNEFPSRRPRFKDIHSRLRAWGNLSNYNSSAQTSGASNTTQTSSLSTSPVSNVSNARYVGPKQKAPPFPQPQFIPMKGQIRPMVPPPQLYVPVNGYQPVPAYGAYLPNFYPVQIPMQMAPQQVPPQMVPKPSSHHSGSGSTSTGYVTTAPSNTSMADRAALLSEGADDTQNAPEDGAQSTVQEAEEEEEGSVPETELLGDCDTLQVDEAQVQLEA
B1 was tested, and the kcat [3] was <0.0005 min⁻¹ and the kcat/Km [3] was < 0.0005 M⁻¹ s⁻¹.

B2: ROR2 ICD (Homo sapiens; D482G) (protein)
chain: B1 chain with D55G
In the case of B2, the kcat [3] is reported as <0.0005 min⁻¹ and the kcat/Km [3] is reported as < 0.0005 M⁻¹ s⁻¹.

B3: CAM-1 ICD (Caenorhabditis elegans; K624R) (protein)
chain: RAKKKSQKTRHQNAHCSSAPSVINSAANSAYYRKLNGTSTPIMGRVPPHVEMTSLLPSAQHLGPPPYPMDQHLQQARRFPSQEPIDDNSYKVFEITPSQLSVREKIGEGQFGVVHSGIYTSGLFAPEPMAVAVRKCRHDATNAERAQLEQEIRAVATFDHPNVIKLIGVCYMDNSLLAVFEYMVHGDLHELLKVRVPPADHDMGGITEANAEFLYIATQIALGMEYLASMSFVHRDLATRNCLVGDTRTIKIADFGLMRTSYGSDYYKMLHRSWMPVRWMSKEAIEQGRFSEASDVWSFGVTLWEIWSFGRQPYEGASNQQVIELVANRHLLECPHNCPTNIYSLMVECWHENIERRPTFSEIRSRLQSWSLASPAHSILQQHNNRAGSHSGSSGAGRPPTHQRGYPSQKLHRRVEGASPLMKRHDANYAYSEDGDSD
For B3, the Km ([4]; 20 mM Mg2+) was 6.69 ± 1.12 mM, the kcat ([4]; 20 mM Mg2+) was 0.20 ± 0.02 min⁻¹ and the kcat/Km ([4]; 20 mM Mg2+) was 0.5 M⁻¹ s⁻¹.

B4: CAM-1 ICD (Caenorhabditis elegans; G599C) (protein)
chain: B3 chain with G109C, R134K
For B4, the kcat [4, 5] was <0.0005 min⁻¹ and the kcat/Km [4, 5] was < 0.0005 M⁻¹ s⁻¹.

B5: CAM-1 ICD (Caenorhabditis elegans) (protein)
chain: B3 chain with R134K
Molecule B5 has a Km [4, 6] of 3.35 ± 0.57 mM, a kcat [4, 6] of 2.53 ± 0.18 min⁻¹ and a kcat/Km [4, 6] of 12.7 M⁻¹ s⁻¹. The Km [4, 7] was 3.53 ± 0.34 mM, the kcat [4, 7] was 2.63 ± 0.11 min⁻¹ and the kcat/Km [4, 7] was 12.5 M⁻¹ s⁻¹.

B6: CAM-1 ICD (Caenorhabditis elegans; D744N) (protein)
chain: B3 chain with R134K, D254N
In the case of B6, the kcat [4, 5] is reported as <0.0005 min⁻¹ and the kcat/Km [4, 5] is reported as < 0.0005 M⁻¹ s⁻¹.

B7: CAM-1 ICD (Caenorhabditis elegans; G599D) (protein)
chain: B3 chain with G109D, R134K
With B7 the kcat [4, 5] was <0.0005 min⁻¹ and the kcat/Km [4, 5] was < 0.0005 M⁻¹ s⁻¹.
